Consider two molecules from patent publication US7993884B2, “Beta-xylosidase for conversion of plant cell wall carbohydrates to simple sugars” (The United States of America as represented by the …, priority 2006, dated 2011).

Where “and” joins values, the source holds several entries; their conditions need not be identical. Equal values may be shown once. Read-outs that look alike come from different tables or passages of the source.

Substrate in series [1]: O=[N+]([O-])c1ccc(O[C@@H]2OC[C@@H](O)[C@H](O)[C@H]2O)cc1
Briefly: purified protein, by the assay type. It counts as biochemical, Selenomonas ruminantium GA192. To be noted: other: pH 5.3, 25° C. An excerpt:
Determination of Inhibition Constants

Substrate in series [2]: O=[N+]([O-])c1ccc(O[C@@H]2OC[C@@H](O)[C@H](O)[C@H]2O)cc1
The series can be described thus: purified protein, by the assay type. It is filed as biochemical, Selenomonas ruminantium GA192. To be noted: other: untreated control SXA, pH 7.0, 25° C.

Substrate in series [3]: O=[N+]([O-])c1ccc(O[C@@H]2O[C@@H](CO)[C@H](O)[C@H]2O)cc1
Briefly: purified protein, by the assay type. It counts as biochemical, Selenomonas ruminantium GA192. To be noted: other: pH 5.3, 25° C.

Substrate in series [4]: OC1OC[C@@H](O[C@@H]2OC[C@@H](O[C@@H]3OC[C@@H](O[C@@H]4OC[C@@H](O[C@@H]5OC[C@@H](O[C@@H]6OC[C@@H](O)[C@H](O)[C@H]6O)[C@H](O)[C@H]5O)[C@H](O)[C@H]4O)[C@H](O)[C@H]3O)[C@H](O)[C@H]2O)[C@H](O)[C@H]1O
Briefly: purified protein, by the assay type. Particulars: for Km: other: 100 mM succinate-NaOH, pH 5.3, 25° C.

Substrate in series [5]: O=[N+]([O-])c1ccc(O[C@@H]2OC[C@@H](O[C@@H]3OC[C@@H](O)[C@H](O)[C@H]3O)[C@H](O)[C@H]2O)cc1
The series can be described thus: purified protein, by the assay type. Particulars: other: 100 mM sodium phosphate, pH 7.0, 25° C, first step (4NPX2 to 4NPX+D-xylose), not well determined, pH 7.0.
Description: (§1) Samples (25 μL) were injected onto the column equilibrated with 0.1 M NaOH and developed with a 15-min linear gradient (0.1 M NaOH to 15 mM sodium acetate) at ˜25° C. and a flow rate of 1 mL min^−1.
(§2) Before (time=0 min) and after (time=1-6 min) initiating reactions with enzyme (7 μL), samples (0.05-0.1 mL) were removed and quenched with an equal volume of 0.5 M acetic acid and frozen. Following lyophilization, samples were dissolved in H2O and analyzed by HPLC. […] Results from two replicate reactions were combined to provide data points for the progress curves.
(§3) Before and after addition of enzyme (7 μL), 25-μl aliquots of the reaction mixtures were directly injected onto the HPLC column for quantification of product L-arabinose.
(§4) Quenched samples were analyzed by HPLC for D-xylose. Initial rates were determined from linear regressions of [D-xylose] produced versus reaction time. […] Four 1-mL replicate reactions were conducted to supply data points for the progress curves. Two parallel reactions were conducted, under the same conditions with the same reaction components, the absorbance at 400 nm was continuously monitored (20 min) for 4NP production, and the absorbance values were converted to mM 4NP concentrations by using a delta extinction coefficient (product-substrate) of 8.22 mM^−1 cm^−1.

Substrate in series [6]: OC1OC[C@@H](O[C@@H]2OC[C@@H](O[C@@H]3OC[C@@H](O)[C@H](O)[C@H]3O)[C@H](O)[C@H]2O)[C@H](O)[C@H]1O
Briefly: purified protein, by the assay type. To be noted: for Km: other: 100 mM succinate-NaOH, pH 5.3, 25° C.

Substrate in series [7]: O=[N+]([O-])c1ccc(O[C@@H]2OC[C@@H](O)[C@H](O)[C@H]2O)cc1
Briefly: purified protein, by the assay type. To be noted: […].
Description: Kinetics with 4NP Substrates
(§5) Two methods were employed for determining initial rates. […] Initial rates were calculated from fitting the absorbance readings versus time to a line (minimum of 4 points per reaction progression) and by using an extinction coefficient of 17.4 mM^−1 cm^−1. In Method B (continuous monitoring), temperature-equilibrated reactions (1 mL) were monitored at 380 nm (for pH values below 6) or 400 nm (for pH values of 6 and above). Reactions were generally monitored 0.3 min for initial rate determinations. Delta extinction coefficients (product-substrate) used for molar conversion were determined by subtracting the absorbance of substrate (at pH 5 so even very minor contaminating 4NP would not contribute) from the absorbance of 4NP for each reaction condition. […] The concentration of 4NP substrates was determined by incubating the substrate with excess enzyme until an end point was reached, adding an aliquot (0.01 to 0.1 mL) to 0.1 M NaOH, recording the absorbance at 400 nm and using the extinction coefficient of 18.3 cm^−1mM^−1. Unless indicated otherwise, for both Methods A and B, reactions were initiated by adding a small aliquot of enzyme (generally 7 μl of enzyme diluted into 10 mM sodium phosphate, pH 7.0, and incubated on wet ice or at ˜25° C.) to the 1-mL, temperature-equilibrated (25° C.) reaction mixtures. For pH studies, buffers of constant ionic strength (I=0.3 M), adjusted with NaCl, were used as indicated: 100 mM succinate-NaOH (pH 4.3-6), 100 mM sodium phosphate (pH 6-8), 30 mM sodium pyrophosphate (pH 8-9), glycine-NaOH (pH 9) and glycylglycine-NaOH (pH 9).

Substrate in series [8]: OC[C@@H]1O[C@@H](OC[C@@H]2OC(O)[C@H](O)[C@H]2O)[C@H](O)[C@H]1O
Briefly: purified protein, by the assay type. Particulars: other: 100 mM succinate-NaOH, pH 5.3, 25° C, pH 5.3.
Description: as §1, §2, §3, §4

Substrate in series [9]: OC1OC[C@@H](O[C@@H]2OC[C@@H](O)[C@H](O)[C@H]2O)[C@H](O)[C@H]1O
The series can be described thus: purified protein, by the assay type. To be noted: other: 100 mM succinate-NaOH, pH 5.3, 25° C.

Substrate in series [10]: OC1OC[C@@H](O[C@@H]2OC[C@@H](O[C@@H]3OC[C@@H](O[C@@H]4OC[C@@H](O)[C@H](O)[C@H]4O)[C@H](O)[C@H]3O)[C@H](O)[C@H]2O)[C@H](O)[C@H]1O
Briefly: purified protein, by the assay type. Particulars: other: 100 mM succinate-NaOH, pH 5.3, 25° C.

Substrate in series [11]: O=[N+]([O-])c1ccc(O[C@@H]2O[C@@H](CO)[C@H](O)[C@H]2O)cc1
Briefly: purified protein, by the assay type.
Description: Kinetics with 4NP Substrates
as §5

Substrate in series [12]: OC1OC[C@@H](O[C@@H]2OC[C@@H](O[C@@H]3OC[C@@H](O[C@@H]4OC[C@@H](O[C@@H]5OC[C@@H](O)[C@H](O)[C@H]5O)[C@H](O)[C@H]4O)[C@H](O)[C@H]3O)[C@H](O)[C@H]2O)[C@H](O)[C@H]1O
The series can be described thus: purified protein, by the assay type. Particulars: other: 100 mM succinate-NaOH, pH 5.3, 25° C.

Series [13] can be described thus: Isoelectric focusing of native SXA. It counts as physicochemical. Particulars: IEF pH 3-10 gel.
The target in series [14] is T1, SXA (Selenomonas ruminantium, UniProt O52575). Briefly: pH stability of SXA and protection from low pH inactivation at pH 4.0 by monosaccharides.
Description: Buffers of constant ionic strength (I=0.3 M), adjusted with NaCl, were used as indicated: 100 mM succinate-NaOH (pH 3.5-6), 100 mM sodium phosphate (pH 6-8), 30 mM sodium pyrophosphate (pH 8-9), and 100 mM glycine-NaOH (pH 9-10). […] Initial rates were determined by monitoring reactions continuously at 400 nM for 0.3 min. […] Relative activity remaining data were fitted to equation 3, which describes a first order decay: A is the relative activity remaining at varied times of preincubation, A0 is the relative activity remaining at time zero of the preincubation, kobs is the first order rate constant, and t is the time of preincubation. Apparent affinities for D-xylose and D-glucose were determined by fitting kobs values from the monosaccharide protection studies to equation 4 where kobs is the observed first order rate constant for the decay, k0 is the first order rate constant in the absence of ligand (e.g., D-xylose), I is the ligand concentration in the preincubation mixture, and Ki is the dissociation constant of ligand from the enzyme-ligand complex.
In series [15] the target is T1, SXA. The protocol:
Initial rates were determined by monitoring reactions continuously at 400 nM for 0.3 min. […] Relative activity remaining data were fitted to equation 3, which describes a first order decay: A is the relative activity remaining at varied times of preincubation, A0 is the relative activity remaining at time zero of the preincubation, kobs is the first order rate constant, and t is the time of preincubation. Apparent affinities for D-xylose and D-glucose were determined by fitting kobs values from the monosaccharide protection studies to equation 4 where kobs is the observed first order rate constant for the decay, k0 is the first order rate constant in the absence of ligand (e.g., D-xylose), I is the ligand concentration in the preincubation mixture, and Ki is the dissociation constant of ligand from the enzyme-ligand complex.
Ligand protection studies contained varied concentrations of D-xylose or D-glucose in the pH 5.3 preincubation buffer at 55° C.

Setting [16] is: 4NP inhibition experiment, HPLC.
[17] abbreviates: D-xylose α:β ratio 1:2.5 experiment.
Setting [18] is: D-xylose α:β ratio 6:1 experiment.
The mark [19] stands for this setting: other: pH 5.3, 25° C (Example 1), approximate, pH 5.3.
The mark [20] stands for this setting: other: 100 mM MES-NaOH, pH 6.00, 25° C, Method B, 50% sucrose, η/ηo 6.85, pH 6.0.
The mark [21] stands for this setting: other: 100 mM MES-NaOH, pH 6.00, 25° C, Method B, η/ηo 1.00, pH 6.0.
The mark [22] stands for this setting: other: 100 mM sodium phosphate, pH 7.0, 25° C, Method B, second step (4NPX to 4NP+D-xylose), pH 7.0.

B1: Selenomonas ruminantium GA192 β-D-xylosidase (SXA), wild type, SEQ ID NO: 2 (Pseudoselenomonas ruminantium) (protein)
chain: MNIQNPVLKGFNPDPSIVRAGDDYYIATSTFEWFPGVQIHHSKDLVHWHLVAHPLSTTEFLDMKGNPDSGGIWAPDLSYADGKFWLIYTDVKVVDGMWKDCHNYLTTAEDIKGPWSKPILLNGAGFDASLFHDPSGKKYLVNMYWDQRVYHHNFYGIALQEYSVAEEKLIGKPEIIYKGTDIAYTEGPHLYYINDMYYLMTAEGGTTYQHSETIARSKTIHGPYEIQPDYPLLSAWKEVHNPLQKCGHASLVETQNGQWYLAHLTGRPLPAPAGFPSREREQHAFCPLGRETAIQKIEWQDGWPVVVGGQQGSLEVEAPDLPQQEWAPTYEERDDFDKDTLNINFQTLRIPFSEHLGSLTARPGFLRLYGRESLQSKFTQAHIARRWQSFNFDAGTSVEFSPNSFQQMAGLTCYYNTENWSSIHVTWNEEKGRIIDLVTADNGTFSMPLAGAEIPIPDEVKTVHFKVSVRGRIYQYAYSFDGETFHTLPIELPSWKLSDDYVRGGGFFTGAFVGINAIDITGTALPADFDYFTYKELD
In general, Km refers to the concentration of substrate that gives half-maximal velocity. By kcat is commonly meant the maximal rate divided by the concentration of active sites. For the molecule B1, the Km stood at 758 ± 59 µM in [1] (setting [16]); 716 ± 32 µM in series [1] (D-xylose inhibition experiment); 380 ± 5 µM in [2]; 900 ± 13 µM in [3] (setting [17]); 880 ± 130 µM in series [3] (setting [18]); 3120 ± 210 µM in [4]. Moreover, the Km in [4] (pH 5.3) was found to be 2700 ± 500 µM; in [5] it was 690 ± 430 µM; in series [6] it was 2120 ± 100 µM; in series [6] (pH 5.3), 3800 ± 600 µM; in series [7] (setting [20]) it was 637 ± 81 µM; in [7] (setting [21]) it was 699 ± 35 µM. The Km was found to be 443 ± 8 µM in series [7] (setting [22]); 690 ± 35 µM in series [7] (other: pH 5.3, 25° C, Method A, 50% sucrose, η/ηo 6.12, pH 5.3); 1200 ± 100 µM in [8]; 2060 ± 80 µM in series [9]; 4200 ± 500 µM in series [9] (pH 5.3); 2750 ± 230 µM in [10]. For the same molecule, the Km in series [10] (pH 5.3) is 4000 ± 300 µM; in series [11] (setting [20]) it was 754 ± 101 µM; in series [11] (setting [21]) it was 745 ± 36 µM; in [11] (other: 100 mM succinate-NaOH, pH 5.3, 25° C, Method A, no sucrose, pH 5.3), 810 ± 50 µM; in series [12], 2860 ± 380 µM; in series [12] (pH 5.3), 3700 ± 600 µM. The kcat was determined as 26.7 ± 1.1 s⁻¹ in series [1] (setting [16]); 32.1 ± 0.5 s⁻¹ in series [1] (D-xylose inhibition experiment); 12.2 ± 0.05 s⁻¹ in series [2]; 2.79 ± 0.01 s⁻¹ in series [3] (setting [17]); 2.78 ± 0.01 s⁻¹ in [3] (setting [18]); 100 s⁻¹ in series [4] (setting [19]). Moreover, the kcat was 50.5 ± 25.7 s⁻¹ in series [5]; 170 s⁻¹ in [6] (setting [19]); 16.2 ± 0.09 s⁻¹ in [7] (setting [22]); 3.25 ± 0.05 s⁻¹ in [11] (other: pH profile, I=0.3 M, Method B).

B2: SXA: β-D-xylosidase (E.C. 3.2.1.37) of Selenomonas ruminantium GA192, glycoside hydrolase family 43, GenBank AAB97967, SEQ. ID No. 2 (protein)
chain: B1 chain
modifications: selenomonas ruminantium
Turning to B2, the isoelectric point entry in series [13] is “approximately 4.4”. Besides, in the series with SXA [14], the “pH below which SXA is unstable” value is listed as “below 4.1”. The “kobs, first-order inactivation rate constant of SXA” value is 0.0784 ± 0.0023 min⁻¹ and 0.0518 ± 0.0037 min⁻¹ in the series with SXA [14] (pH 4.0, 25° C., absence of monosaccharide (0 mM)); 0.0252 ± 0.0020 min⁻¹ and 0.0256 ± 0.0015 min⁻¹ with SXA [15] (pH 5.3, 55° C., absence of monosaccharide (0 mM)). Moreover, the “temperature up to which the enzyme is stable” value in the series with SXA [15] was “up to 55 °C”.
